Data published in the DeepSol protein solubility set.

Test: soluble on expression in E. coli; label from the status in PepcDB or PDB records

| Sequence | soluble on expression in E. coli |
| --- | --- |
| SNAIGLIITALPEPYWIVLHDRIVNVISSSSLTSETEWVGYPFRLFDFTACHQSYSEMSCSYTLALAHAVWHHSSIGQLSLIPKFLTEALLPVVKTEFQLLYVYHLVGPFLQRFQQERTRCMIEIGVAFYDMLLNVDQCSTHLNYMDPICDFLYHMKYMFTGDSVKEQVEKIICNLKPALKLRLRFITHISKMEPAVPPQALNSGSPAPQSNQVPASLPVTQ | soluble |
| MGSDKIHHHHHHLAKIKTKFVCQSCGTESPKWMGRCSGCGEWNTMVEEVVEEKKARRGSAFVHTTTKQLKPERLSNILSQEESRVFTGSGEFDRVLGGGIVPGSMVLVGGDPGIGKSTILLQTSARLAARGEKVLYISGEESLKQTKLRAERLGLPTQDLFVLSETDMNMIERVVDEENPAFLIIDSIQTVYIDEIQSAPGSVTQVRECTAMLMKIAKSRGIAIFIVGHVTKQGSIAGPRLLEHMVDAVLYFEGERHHTFRILRAVKNRFGSTNEIGIFEMRESGLEEVLNPSEIFLEERTSGVSGSTIVASMEGTRTVLVELQALISPTSFGNPRRMATGIDQNKVALLMAVLEKRSGLLLQTQDAYLKAAGGVKLDEPAIDLAICVAVASSFRDKPTRPTDVVIGEVGLTGEVRRVSRIEQRVAEAAKLGFTRAIIPKNNLGGWTYPPGITVIGVESVDEALRETIPF | not soluble |
| MGSDKIHHHHHHMSGPQKANDLLGQIPKTKGLPPVHLWNPDFCGDIDMRIARDGTWYYLGTPIGRKPMVKLFSTIIRRDGDDYFLITPVEKVGIKVDDAPFVAIAVEMEGEGEAQVLRFTTNVDETTEAGAEHLIRVEIDPVTQEPAPYVHVRTNLEALIHRNVFYQLVELAVSREIDGQRWLGVWSGGEFFRIGLEP | not soluble |
| MGSDKIHHHHHHMINPQWLHTFAVLVEKGNFTRTAEAIGITQAAVSQHISRLEEEYGTLFLRRPRQLEITPIGENLLTYVKDVECAQKRLQQKLIHDDAEVGDISLITPGSIGLTLFPLLIELQQAFPALNIRHRFAPDSEIVASVLANEHEIGMVTLKPSDPRIHSTHFTEEPLELVVPACHKQNEWVDLQRLGFISHPDGEAMATRLLSRKYPSNPGIQDIPCKGFTNQISLILEPVAKGLGFTVIPQYARKAFERQQDIYVVECGSQVVDTIWLIHRAEWPLSRRAQKAITFLKGKI | not soluble |
| MGSDKIHHHHHHMSVISENVKYFRKQLGFTQEQLAQRIGIKRSLLGAYEEGRAEPGLETLTILARLFETTVDALISETLSDPGKRKEAMSKDIEGKKLRVLAITVDKDDKENIQLVPEKAAAGYLNGYADPEYVAELPQFYLPIFSGSGTYRAFEIKGDSMLPLASGSLIIGQYVDNWSSVKDQQTYILVTATEGIVYKRIYNNIKKNETLKLVSDNPAYEPYDIHVENVIEIWESKAYISTDFPKPDMSVEKLTAIVSGLQKQMNKLSND | not soluble |
| AIASRAASLRAELTSLANAFEEERISSAERLDADLVRQAVEQAKPENLEQWKQVVHDATAKLQQFWEDSEQALIRETYALATSYLRESDDEVHRLQMTKKALEEQLETERRRSTRIEEQLAALQSRLLDSAAPAATTPADDARTQQEVLRSELQGFMQELVRNQRESLRVLQEELQRVREEASVREENLLRQIAHLKTELAVARTDNEVSSRQLRQLETSAGREEVQDELGPGTIWPPHLTPRRGHRRFQRHNRLEDAPAPPEF | soluble |
| MPYRKYREKKYETKYREAFKLFQEKIGITFTDEKLLIQAFTHSSYVNEHRKKPHEDNERLEFLGDAVLELTVSQYLFQKYPTMSEGELTKLRAAIVCEPSLVRFANELSFGSLVLLGKGEEMTGGRERPALLADVFEAFIGALYLDQGLETVWGFLKEIVYPKINEGAFSHVMDYKSQLQELIQRDGSGNIEYQILQEKGPAHNREFVSRVTLNNVALGLGSGKSKKEAEQQAAAEALKKLKEQL | soluble |
| MARILAIDDEDGILYIIKSALEKEGHEVTAVSNPLTIPKEKFCHYDLILLDVMMPEIDGFTLCKEIRDFVDSPIVFLTAKTMEKDLITGLSLGGDDYITKPFGIGELRARVSAHVRREHREKQNAFFLSGLTFHLSCKEIWYDDTSIAFTKSEYGICEYLALNHGQVFSREKIYENVFGYEGESDNQVIVEHIKNIRHKLSKYGMNPIETVWGIGYKWRK | not soluble |
| MASGAGGVGGGGGGKIRTRRCHQGPIKPYQQGRQQHQGILSRVTESVKNIVPGWLQRYFNKNEDVCSCSTDTSEVPRWPENKEDHLVYADEESSNITDGRITPEPAVSNTEEPSTTSTASNYPDVLTRPSLHRSHLNFSMLESPALHCQPSTSSAFPIGSSGFSLVKEIKDSTSQHDDDNISTTSGFSSRASDKDITVSKNTSLPPLWSPEAERSHSLSQHTATSSKKPAFNLSAFGTLSPSLGNSSVLKTSQLGDSPFYPGKTTYGGAAAAVRQSKLRNTPYQAPVRRQMKAKQLSAQSYGVTSSTARRILQSLEKMSSPLADAKRIPSIVSSPLNSVDSQYPPVQRLMTPKPVSIATNRSVYFKPSLTPSGEFRKTNQRIDKKCSTGYEKNMTPGQNREQRESGFSYPNFSLPAANGLSSGVGGGGGKMRRERTRFVASKPLEEEEMEVPVLPKISLPITSSSLPTFNFSSPEITTSSPSPINSSQALTNKVQMTSPSSTGSPMFKFSSPIVKSTEANVLPPSSIGFTFSVPVAKTAELSGSSSTLEPIISSSAHHVTTVNSTNCKKTPPEDCEGPFRPAEILKEGSVLDILKSPGFASPKIDSVAAQPTATSPVVYTRPAISSFSSSGIGFGESLKAGSSWQCDTCLLQNKVTDNKCIACQAAKLSPRDTAKQTGIETPNKSGKTTLSASGTGFGDKFKPVIGTWDCDTCLVQNKPEAIKCVACETPKPGTCVKRALTLTVVSESAETMTASSSSCTVTTGTLGFGDKFKRPIGSWECSVCCVSNNAEDNKCVSCMSEKPGSSVPTSSSSTVPVSLPSGGSLGLEKFKKPEGSWDCELCLVQNKADSTKCLACESAKPGTKSGFKGFDTSSSSSNSAASSSFKFGVSSSSSGPSQTLTSTGNFKFGDQGGFKIGVSSDSGSINPMSEGFKFSKPIGDFKFGVSSESKPEEVKKDSKNDNFKFGLSSGLSNPVSLTPFQFGVSNLGQEEKKEELPKSSSAGFSFGTGVINSTPAPANTIVTSENKSSFNLGTIETKSASVAPFTCKTSEAKKEEMPATKGGFSFGNVEPASLPSASVFVLGRTEEKQQEPVTSTSLVFGKKADNEEPKCQPVFSFGNSEQTKDENSSKSTFSFSMTKPSEKESEQPAKATFAFGAQTSTTADQGAAKPVFSFLNNSSSSSSTPATSAGGGIFGSSTSSSNPPVATFVFGQSSNPVSSSAFGNTAESSTSQSLLFSQDSKLATTSSTGTAVTPFVFGPGASSNNTTTSGFGFGATTTSSSAGSSFVFGTGPSAPSASPAFGANQTPTFGQSQGASQPNPPGFGSISSSTALFPTGSQPAPPTFGTVSSSSQPPVFGQQPSQSAFGSGTTPNSSSAFQFGSSTTNFNFTNNSPSGVFTFGANSSTPAASAQPSGSGGFPFNQSPAAFTVGSNGKNVFSSSGTSFSGRKIKTAVRRRK | soluble |
| AWKGEVLANNEAGQVTSIIYNPGDVITIVAAGWASYGPTQKWGPQGDREHPDQGLICHDAFCGALVMKIGNSGTIPVNTGLFRWVAPNNVQGAITLIYNDVPGTYGNNSGSFSVNIGKDQS | soluble |
| LALMSAAKLPKSFVWGYATAAYQIEGSPDKDGREPSIWDTFCKAPGKIADGSSGDVATDSYNRWREDVQLLKSYGVKAYRFSLSWSRIIPKGGRSDPVNGAGIKHYRTLIEELVKEGITPFVTLYHWDLPQALDDRYGGWLNKEEAIQDFTNYAKLCFESFGDLVQNWITFNEPWVISVMGYGNGIFAPGHVSNTEPWIVSHHIILAHAHAVKLYRDEFKEKQGGQIGITLDSHWLIPYDDTDASKEATLRAMEFKLGRFANPIYKGEYPPRIKKILGDRLPEFTPEEIELVKGSSDFFGLNTYTTHLVQDGGSDELAGFVKTGHTRADGTQLGTQSDMGWLQTYGPGFRWLLNYLWKAYDKPVYVTENGFPVKGENDLPVEQAVDDTDRQAYYRDYTEALLQAVTEDGADVRGYFGWSLLDNFEWAEGYKVRFGVTHVDYETQKRTPKKSAEFLSRWFKEHIEE | soluble |
| MTFLRYAIYFLPPASEAWAGFGASWLGWDVETGQELAHPAETGLDVAALTATPRKYGLHATMKPPFRLAEGQDVDALRRACATLAASRPAVTLDGLEIARLGRFLALRPVGELGALNALAAACVTELDPFRAPATPQELVRRRAARLSPEQDAHLLSWGYPYVLDQFRFHITLTGRLDDDMLMQAQTLLQRRLGPLLPVPFTLADLALVGEAGDGRFHLIHRYALSR | not soluble |
| SLNVLCNNPHTADCNNDAQVDRYFREGTTCLMSPACTSEGYASQHECQQACFVGGEDHSSEMHSSCLGDPPTSCAEGTDITYYDSDSKTCKVLAASCPSGENTFESEVECQVACGAPIEG | soluble |
| MDNIVTQNIKFESEPNYYLRGYHLFDISPLNGLKCEITDEFETDKIHLKIKLDWDQQEIKKITGFIQLSYDGHQLKPIDSNFDKRGGICIMTVPKYINAYRWSFSFDLKLHRYPAKPPQISHDLNPQVRSYDTMFEPSRKHDAVLLIGEKKLHVNKAFLSYHSDYFCDLFAEKFDEKNGIPIENVTYENFGLLMSIIYPEAAFSNHQNAEVLLELGNRFKIPAVMRHVENQIIRDTKFPNERLIFLADKYELQKLLAMEIQKMESFDQAKKFKGSDDYSQLSDATKAKILDRLIELS | not soluble |
| MRIMASHDTPVSPAGILIDLDGTVFRGNELIEGAREAIKTLRRMGKKIVFLSNRGNISRAMCRKKLLGAGIETDVNDIVLSSSVTAAFLKKHYRFSKVWVLGEQGLVDELRLAGVQNASEPKEADWLVISLHETLTYDDLNQAFQAAAGGARIIATNKDRSFPNEDGNAIDVAGMIGAIETSAQAKTELVVGKPSWLMAEAACTAMGLSAHECMIIGDSIESDIAMGKLYGMKSALVLTGSAKQGEQRLYTPDYVLDSIKDVTKLAEEGILILEHHHHHH | not soluble |
| MTPSRPSPDFPDGGFVQVRGARQHNLKDISVKVPRDALVVFTGVSGSGKSSLAFGTLYAEAQRRYLESVSPYARRLFNQAGVPDVDAIDGLPPAVALQQARGTPTARSSVGSVTTLSNLLRMLYSRAGDYPPGQGIVYAEGFSPNTPEGACPECHGLGRVYTVTEDSMVPDPSLTIRERAVAAWPQAWGGQNQRDILVTLGIDVDVPWRELPEETRHWILFTDEQPVVPVYPGLTPAETQRALKKKMEPSYMGTFSSARRHVLHTFANTESASMKKRVQGYMISEECPLCHGKRLRQEALNVTFAGLDITELSRLPLARVSELLRPYAEEREPGHAERVKNRPEQAIALQRMAADLVKRLDVLLHLGLGYLGLDRSTPTLSPGELQRLRLATQLYSNLFGVVYVLDEPSAGLHPADTEALLSALENLKRGGNSLFVVEHDLDVIRRADWLVDVGPEAGEKGGEILYSGPPEGLKHVPESQTGQYLFADRHTEPHTPREPAGWLELNGVTRNNLDNLDVRFPLGVMTSVTGVSGSGKSTLVSQALVDALAAHFGQPVNPDPEDDEDPADHTAGSARLGGDLAQITRLVRVDQKPIGRTPRSNMATYTGLFDQVRKLFAATPLAKKRGYNAGRFSFNVKGGRCEHCQGEGWVMVELLFLPSVYAPCPVCHGTRYNAETLEVEYRGKNIADVLALTVDEAHDFFADESAIFRALDTLREVGLGYLRLGQPATELSGGEAQRIKLATELRRSGRGGTVYVLDEPTTGLHPADVERLQRQLVKLVDAGNTVIAVEHKMQVVAASDWVLDIGPGAGEDGGRLVAQGTPAEVAQAAGSVTAPYLRAALR | soluble |
